Patent publication US8058396B2, “Cystatin C as an antagonist of TGF-β and methods related thereto” (National Jewish Health, priority 2003, dated 2011)

B1: Δ14CystC: human CystC with deletion of positions 80 to 93 (conserved cysteine proteinase inhibitor motif), retrovirally expressed and secreted (protein)
chain: MAGPLRAPLLLLAILAVALAVSPAAGSSPGKPPRLVGGPMDASVEEEGVRRALDFAVGEYNKASNDMYHSRALQVVRARLGRTTCTKTQPNLDNCPFHDQPHLKRKAFCSFQIYAVPWQGTMTLSKSTCQDA
modifications: left off: small tags and cut ends
B2: CystC: full-length human Cystatin C (SEQ ID NO:2), C-terminally Myc- and (His)6-tagged, retrovirally expressed and secreted by the cells (protein, listed as Homo sapiens)
chain: MAGPLRAPLLLLAILAVALAVSPAAGSSPGKPPRLVGGPMDASVEEEGVRRALDFAVGEYNKASNDMYHSRALQVVRARKQIVAGVNYFLDVELGRTTCTKTQPNLDNCPFHDQPHLKRKAFCSFQIYAVPWQGTMTLSKSTCQDA
modifications: C-terminal Myc and His6 tags

Columns and labels:
NRK kidney fibroblasts [1] = experiment: NRK cell invasion through Matrigel matrices; assay type: cell-based, rat; conditions: expression in NRK cells, 48 hours, p<0.05; for TGF-β-stimulated NRK cell invasion through synthetic basement membranes: TGF-β1 5 ng/ml
Protocol: (§1) This hypothesis was tested by infecting NRK cells with bicistronic retrovirus encoding either CystC or Δ14CystC to determine their effects on NRK anchorage-independent growth stimulated by TGF-β. Briefly, rat NRK kidney fibroblasts were infected with control (i.e., pMSCV-IRES-GFP), CystC, or Δ14CystC retroviral supernatants, and the resulting infected cells were isolated by GFP fluorescence on a MoFlo cell sorter 48 hours later. Control, CystC-, and Δ14CystC-expressing NRK cells were cultured in soft-agar in the absence or presence of TGF-β1 (5 ng/ml) for 7 d, whereupon NRK colony formation was quantified by light microscopy. In addition, control, CystC-, and Δ14CystC-expressing NRK cells were allowed to invade through Matrigel matrices in the absence or presence of TGF-β1 (5 ng/ml) for 48 hours.

[2] = test system: NMuMG mammary epithelial cells; experiment: TGF-β-stimulated actin cytoskeletal reorganization (EMT) in NMuMG cells, rhodamine-phalloidin immunofluorescence; assay type: cell-based, murine; conditions: overexpression in NMuMG cells; TGF-β1 5 ng/ml, 8 hours
Protocol: The ability of TGF-β to alter actin cytoskeletal architecture and E-cadherin expression was monitored essentially as described (Piek et al., 1999). Briefly, control-, CystC-, or Δ14CystC-expressing NMuMG cells were allowed to adhere overnight to glass coverslips in 24-well plates (50,000 cells/well). The cells were stimulated the following day with TGF-β1 (5 ng/ml) for 0-36 hours at 37° C. In some experiments, control NMuMG cells were stimulated with TGF-β1 in the absence or presence of 10 μg/ml of recombinant GST, GST-CystC, or GST-Δ14CystC. Upon completion of agonist stimulation, the cells were washed in ice-cold PBS and immediately fixed in 3.7% formaldehyde. After extensive washing in PBS, the cells were blocked in PBS supplemented with 1.5% FBS, followed by incubation with rhodamine-phalloidin (0.25 μM). […]
To test this hypothesis, the inventor first examined whether CystC and a CystC mutant impaired in its ability to inhibit cathepsin protease activity (i.e., Δ14CystC) could antagonize TGF-β stimulation of EMT in MECs. […] TGF-β stimulation of EMT is studied routinely in murine NMuMG MECs, which readily undergo EMT when treated with TGF-β (Piek et al., 1999; Miettinen et al., 1994; Gotzmann et al., 2004). […] E-cadherin expression was monitored by indirect immunofluorescence with anti-E-cadherin antibodies.
In another experiment, NMuMG cells were infected with ecotropic retrovirus encoding either GFP (i.e., control), CystC, or Δ14CystC, and subsequently were isolated by FACS-sorting for GFP expression to yield stable polyclonal populations of control, CystC, and Δ14CystC-expressing cells. The expression and secretion of recombinant CystC proteins by infected NMuMG and NRK cells was monitored by immunoblotting conditioned-media with anti-CystC antibodies. […] Next, the control, CystC-, and Δ14CystC-expressing NMuMG cells were incubated in the absence or presence of TGF-β1 (5 ng/ml) for 36 hours, whereupon E-cadherin expression was monitored by immunoblotting with anti-E-Cadherin antibodies. […]

HT1080 cells = experiment: Migration of HT1080 cells to fibronectin; assay type: cell-based, human; conditions: overexpression in HT1080 cells; data not shown
NRK kidney fibroblasts [3] = experiment: Soft agar assay, anchorage-independent growth of NRK cells; assay type: cell-based, rat; conditions: retroviral-mediated expression in NRK cells; TGF-β1 5 ng/ml; 7 d
Protocol: The growth of NRK cells in soft agar was performed according to the procedures described in (Moustakas et al., 1999). Briefly, duplicate cultures of control-, CystC-, or Δ14CystC-expressing NRK cells (10,000 cells/plate) were grown in 0.3% agar on a cushion of 0.6% agar in 35-mm plates. NRK cell growth in the absence or presence of TGF-β1 (5 ng/ml) was allowed to proceed for 7 d, whereupon the number of colonies formed was quantified under a light microscope.
as §1

Molecule | TGF-β-stimulated NRK cell invasion through synthetic basement membranes (NRK kidney fibroblasts [1]) | actin cytoskeletal reorganization stimulated by TGF-β [2] | migration of HT1080 cells to fibronectin (HT1080 cells) | morphological transformation (soft agar colony formation) stimulated by TGF-β (NRK kidney fibroblasts [3]) | tonic NRK cell invasion (NRK kidney fibroblasts [1])
B1 | inhibited significantly | prevented | failed to effect | completely prevented | 
B2 | inhibited significantly | prevented | failed to effect | completely prevented | inhibited significantly
